Experimental data as given in US7963935B2, “Microprojection array having a beneficial agent containing coating” (Alza Corporation, priority 2001, dated 2011).
Where a name gives a salt, the structure may show the parent alone. Each block holds one compound with its values, some of them ahead of it.

What was measured:
[1] = Dry film/coating on titanium foil: inspection and redissolution/rehydration in water; assay type: physicochemical
Description: In order to test the ability of aqueous albumin solutions to form solid coatings on titanium microprojections, a coated microprojection array was prepared in the following manner. […] To aliquots of these solutions, fluorescein, a marker added for subsequent visualization of the dried coating, was added at a final concentration of 1 millimolar. A 1-microliter drop of this solution was spread on titanium foil having an area of about one centimeter square. The solution was allowed to dry at room temperature for about 1 hour.
A coated microprojection array was prepared in the following manner. […] To this suspension, fluorescein, a marker added for subsequent visualization, was added at a final concentration of 1 millimolar. A 1 microliter drop of this suspension was spread on titanium foil having an area of 1 square centimeter and allowed to dry at room temperature for about an hour.
To 50 microliters of this solution, 50 microliters of a 40 percent by weight aqueous solution of lidocaine HCl was added. A control solution containing no albumin was also prepared. 1-microliter drops of these solutions were spread on titanium foil having an area of approximately 1 square centimeter. The solutions were allowed to air dry at room temperature for about 1 hour.

[2] = hGH delivery studies with tip-coated microprojection arrays; plasma hGH by ELISA, compared with subcutaneous injection; assay type: in vivo, hairless guinea pigs; conditions: for Cmax / tmax: plasma hGH
Description: An aqueous solution containing 20 wt % human growth hormone (20 wt % hGH), and 20 wt % sucrose was prepared. […] The tips of the microprojections were coated with this solution by passing the arrays over a rotating drum carrying the hGH/sucrose solution using the method and apparatus disclosed in U.S. Patent Application Ser. No. 60/276,762 filed Mar. 16, 2001. Four successive coatings were performed on each microprojection array at 4° C. The amount of protein coated on the arrays was evaluated by total protein assay. An average of 9.5±0.9 μg of hGH was coated per array. […] On the microprojection itself, the coating was found unevenly distributed. Most of the solid coating appeared to be located in caps centered on the geometric center of the faces of the coated area of the microprojections. […] The maximum measured thickness of the coating was about 4 μm while the average calculated thickness over the entire coated area was only about 1.7 μm. Overall, the coating presented good aerodynamics and good adhesion, consistent with minimum effect on penetration of the microprojections into the skin and minimal removal of the drug from the microprojection during penetration.
Some of the hGH tip-coated arrays were subsequently used for drug delivery studies in hairless guinea pigs. The application of the coated microprojection arrays was done using an impact applicator (total energy=0.4 Joules, delivered in less than 10 milliseconds) using a spring-driven impact applicator or the type disclosed in U.S. Patent Application Ser. No. 60/240,307 filed Oct. 13, 2000. The arrays were left on the skin after application for 5 seconds, 5 minutes, or 1 hour, in groups of three animals. Blood was collected at time intervals for plasma hGH determination by ELISA. […] On average, 5 μg of hGH was delivered in each animal, which accounts for approximately 50% of the coated dose. […] Finally, the 5 minute wearing time group had the smallest CV (30%), which is even smaller than that observed following subcutaneous injection (50%).

Compound: CCN(CC)CC(=O)Nc1c(C)cccc1C [lidocaine HCl]
- nature of dried film (hygroscopicity, suitability for storage) ([1]; control solution without albumin): very hygroscopic film unsuitable for subsequent storage

- release of drug particles from dry albumin coating following rehydration ([1]; CSA suspension in 20 wt% human albumin, dried on titanium foil, particles 1 to 25 micrometers): freed readily following rehydration
Compound: Cyclosporin A [CSA]

Compound: human growth hormone [hGH]
- hGH delivery versus wearing time ([2]; arrays left on skin 5 seconds, 5 minutes or 1 hour): the same at all wearing times
- amount of hGH delivered in each animal (average) ([2]; hGH/sucrose tip-coated microprojection array, impact applicator, hairless guinea pigs, all wearing times): 5 µg
- Cmax ([2]; microprojection administration): 13 ng/mL
- tmax ([2]; microprojection administration): 30 min
- hGH delivered as fraction of the coated dose ([2]; microprojection array, hairless guinea pigs): approximately 50%
- fraction of the coated dose delivered into the skin ([2]; microprojection array, assuming bioavailability similar to subcutaneous (65%)): about 80%
- bioavailability ([2]; subcutaneous administration): 65%
- Cmax ([2]; subcutaneous injection): 5 ng/mL
- tmax ([2]; subcutaneous injection): 60 min
